Here are results for 5 substances from FireProtDB (doi:10.1016/s0167-4838(99)00071-0).

Where “and” joins values, the source holds several entries; their conditions need not be identical. Equal entries are not always repeated.

The conditions of the data set: Saccharomyces cerevisiae (strain ATCC 204508 / S288c), Thermal, DSC, reversible: yes.
[1] abbreviates: pH 4.7, 51.4 °C, sodium acetate 50 mM, structure 1YCC.
Where [2] appears, read: pH 4.7, sodium acetate 50 mM, structure 1YCC.
Where [3] appears, read: pH 6, 57.1 °C, sodium phosphate 100 mM, structure 1YCC.
Where [4] appears, read: pH 6, sodium phosphate 10 mM, structure 1YCC.
[5] abbreviates: pH 6, sodium phosphate 100 mM, structure 1YCC.

Cytochrome c isoform 1 T102A|C108T, P00044 T102A C108T, sequence (P00044 whole entry T102A/C108T, canonical isoform): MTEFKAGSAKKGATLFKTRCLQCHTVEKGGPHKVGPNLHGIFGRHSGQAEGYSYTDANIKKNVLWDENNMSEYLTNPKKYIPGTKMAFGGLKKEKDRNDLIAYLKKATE
Cytochrome c isoform 1 C108T, P00044, sequence (P00044 whole entry C108T, canonical isoform): as the sequence (P00044 whole entry T102A/C108T, canonical isoform) above, with A102T counted along it
Cytochrome c isoform 1 T75E|T102A|C108T, P00044 T75E T102A C108T, sequence (P00044 whole entry T75E/T102A/C108T, canonical isoform): as the sequence (P00044 whole entry T102A/C108T, canonical isoform) above, with T75E counted along it
Cytochrome c isoform 1 wild type, P00044, sequence (P00044 whole entry, canonical isoform): as the sequence (P00044 whole entry T102A/C108T, canonical isoform) above, with A102T, T108C counted along it
Cytochrome c isoform 1 T75E|C108T, P00044 T75E C108T, sequence (P00044 whole entry T75E/C108T, canonical isoform): as the sequence (P00044 whole entry T102A/C108T, canonical isoform) above, with T75E, A102T counted along it

Cytochrome c isoform 1 C108T, P00044: the “unfolding enthalpy (calorimetric)” value was 272 kJ/mol and 285 kJ/mol under setting [1]; 289 kJ/mol and 485 kJ/mol under setting [2]; 339 kJ/mol and 314 kJ/mol under setting [3]; 360 kJ/mol and 510 kJ/mol under setting [4]. Moreover, the “heat capacity change of unfolding” value came out at 1.7 kcal/mol/K under setting [2] and 1.7 kcal/mol/K under setting [4]. The “unfolding enthalpy (van 't Hoff)” value under setting [2] was 346 kJ/mol and 631 kJ/mol; the “unfolding enthalpy (van 't Hoff)” value under setting [4] is 397 kJ/mol and 611 kJ/mol.

In the case of “Cytochrome c isoform 1 T75E|C108T, P00044 T75E C108T”, the “unfolding enthalpy (calorimetric)” value is, setting by setting: under setting [1], 335 kJ/mol; under setting [2], 372 kJ/mol and 523 kJ/mol; under setting [3], 377 kJ/mol and 381 kJ/mol; under setting [4], 410 kJ/mol; under setting [5], 565 kJ/mol. Besides, the “heat capacity change of unfolding” value was determined as 1.5 kcal/mol/K under setting [2], 1.5 kcal/mol/K under setting [4] and 1.5 kcal/mol/K under setting [5]. Also, the “unfolding enthalpy (van 't Hoff)” value under setting [2] was 410 kJ/mol and 575 kJ/mol; the “unfolding enthalpy (van 't Hoff)” value under setting [4] was found to be 452 kJ/mol; the “unfolding enthalpy (van 't Hoff)” value under setting [5] worked out at 623 kJ/mol. Further, the Tm runs as follows: under setting [4], 62.6 °C; under setting [5], 86.3 °C.

As for “Cytochrome c isoform 1 wild type, P00044”, the “unfolding enthalpy (calorimetric)” value by setting is: (pH 4.7, 51.4 °C, sodium acetate 50 mM) 176 kJ/mol and 205 kJ/mol; (pH 4.7, sodium acetate 50 mM) 167 kJ/mol; (pH 6, 57.1 °C, sodium phosphate 100 mM) 326 kJ/mol and 259 kJ/mol; (pH 6, sodium phosphate 100 mM) 326 kJ/mol and 410 kJ/mol. The “heat capacity change of unfolding” value (pH 4.7, sodium acetate 50 mM) is 1.4 kcal/mol/K and the “heat capacity change of unfolding” value (pH 6, sodium phosphate 100 mM) was 1.4 kcal/mol/K. Besides, the “unfolding enthalpy (van 't Hoff)” value runs as follows: (pH 4.7, sodium acetate 50 mM) 218 kJ/mol; (pH 6, sodium phosphate 100 mM) 423 kJ/mol and 531 kJ/mol. Further, the Tm (pH 6, sodium phosphate 10 mM) worked out at 81.4 °C.

Take “Cytochrome c isoform 1 T102A|C108T, P00044 T102A C108T”: the “unfolding enthalpy (calorimetric)” value is 326 kJ/mol and 280 kJ/mol under setting [1]; 351 kJ/mol and 506 kJ/mol under setting [2]; 351 kJ/mol under setting [3]; 381 kJ/mol and 602 kJ/mol under setting [5]. In addition, the “heat capacity change of unfolding” value under setting [2] was 1.8 kcal/mol/K and the “heat capacity change of unfolding” value under setting [5] amounted to 1.8 kcal/mol/K. Moreover, the “unfolding enthalpy (van 't Hoff)” value reads like this: under setting [2], 492 kJ/mol and 557 kJ/mol; under setting [5], 456 kJ/mol and 602 kJ/mol.

On to “Cytochrome c isoform 1 T75E|T102A|C108T, P00044 T75E T102A C108T”, for which the “unfolding enthalpy (calorimetric)” value reads like this: under setting [1], 314 kJ/mol and 322 kJ/mol; under setting [2], 356 kJ/mol and 544 kJ/mol; under setting [3], 347 kJ/mol and 385 kJ/mol; under setting [5], 385 kJ/mol and 598 kJ/mol. Further, the “heat capacity change of unfolding” value worked out at 1.7 kcal/mol/K under setting [2] and 1.7 kcal/mol/K under setting [5]. For the same substance, the “unfolding enthalpy (van 't Hoff)” value is, setting by setting: under setting [2], 427 kJ/mol and 707 kJ/mol; under setting [5], 502 kJ/mol and 657 kJ/mol.

Broadly, the Tm is the temperature at the midpoint of the melting transition.
